Source: PMC9482650, “Quantitative fragmentomics allow affinity mapping of interactomes” (Nature Communications, 2022)

Experiments:
Test in all cases: holdup assay
Parameters in all cases: key: below the threshold = too weak to quantify, mostly under pKd 3.1 to 4
[1] = biological target: T1, APBA2_2, Q99767
T1 sequence (Q99767 654-744, limits assumed, looked up): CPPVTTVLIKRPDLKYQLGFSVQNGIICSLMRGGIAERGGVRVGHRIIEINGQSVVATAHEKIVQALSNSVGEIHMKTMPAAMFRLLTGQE

[2] = biological target: ARHGEF12, Q9NZN5-2
Sequence of ARHGEF12, Q9NZN5-2 (Q9NZN5 other isoform, or with tags, fused parts or gaps): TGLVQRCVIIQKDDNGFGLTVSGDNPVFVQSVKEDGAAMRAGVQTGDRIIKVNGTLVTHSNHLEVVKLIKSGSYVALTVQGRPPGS

[3] = biological target: T2, CARD11, Q9BXL7
T2 sequence (Q9BXL7 662-765, limits assumed, looked up): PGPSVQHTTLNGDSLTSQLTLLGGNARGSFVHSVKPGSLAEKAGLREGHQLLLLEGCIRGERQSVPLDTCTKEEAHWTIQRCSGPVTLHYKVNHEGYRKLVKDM

[4] = biological target: CASK, O14936
Sequence of CASK, O14936 (O14936 487-570): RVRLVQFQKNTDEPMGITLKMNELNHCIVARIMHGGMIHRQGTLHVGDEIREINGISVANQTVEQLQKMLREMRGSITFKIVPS

[5] = biological target: T3, DFNB31_1, Q9P202
T3 sequence (Q9P202 135-233, limits assumed, looked up): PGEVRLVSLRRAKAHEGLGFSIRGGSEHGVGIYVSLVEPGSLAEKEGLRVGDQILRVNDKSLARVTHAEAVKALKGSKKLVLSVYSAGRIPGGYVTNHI

[6] = biological target: FRMPD2_2, Q68DX3
Sequence of FRMPD2_2, Q68DX3 (Q68DX3 944-1038): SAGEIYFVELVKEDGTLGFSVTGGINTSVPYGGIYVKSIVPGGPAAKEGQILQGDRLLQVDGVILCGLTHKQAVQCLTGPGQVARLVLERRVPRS

[7] = biological target: GRID2IP_1, A4D2P6
Sequence of GRID2IP_1, A4D2P6 (A4D2P6 1-87): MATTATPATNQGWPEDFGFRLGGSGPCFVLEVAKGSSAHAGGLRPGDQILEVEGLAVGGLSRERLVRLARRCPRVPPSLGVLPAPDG

[8] = biological target: GRID2IP_2, A4D2P6
Sequence of GRID2IP_2, A4D2P6 (A4D2P6 272-370): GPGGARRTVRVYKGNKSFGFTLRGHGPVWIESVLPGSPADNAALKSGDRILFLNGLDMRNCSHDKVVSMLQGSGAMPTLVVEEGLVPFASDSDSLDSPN

[9] = biological target: T4, GRIP1_2, Q9Y3R0
T4 sequence (Q9Y3R0 145-248, limits assumed, looked up): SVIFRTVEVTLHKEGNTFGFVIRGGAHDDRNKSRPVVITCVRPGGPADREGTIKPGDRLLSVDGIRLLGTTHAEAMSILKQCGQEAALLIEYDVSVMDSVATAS

[10] = biological target: T5, GRIP1_3, Q9Y3R0
T5 sequence (Q9Y3R0 247-346, limits assumed, looked up): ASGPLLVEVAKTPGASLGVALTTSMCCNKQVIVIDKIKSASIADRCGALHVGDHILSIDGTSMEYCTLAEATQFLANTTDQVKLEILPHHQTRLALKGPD

[11] = biological target: T6, GRIP1_7, Q9Y3R0
T6 sequence (Q9Y3R0 999-1096, limits assumed, looked up): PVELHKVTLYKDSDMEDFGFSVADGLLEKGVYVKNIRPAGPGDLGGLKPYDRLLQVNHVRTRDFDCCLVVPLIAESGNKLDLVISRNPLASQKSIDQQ

[12] = biological target: GRIP2_4, Q9C0E4
Sequence of GRIP2_4, Q9C0E4 (Q9C0E4 446-548): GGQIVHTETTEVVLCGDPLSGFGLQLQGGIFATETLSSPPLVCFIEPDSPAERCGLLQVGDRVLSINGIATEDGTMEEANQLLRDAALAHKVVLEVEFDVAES

[13] = biological target: IL16_1, Q14005
Sequence of IL16_1, Q14005 (Q14005 210-306): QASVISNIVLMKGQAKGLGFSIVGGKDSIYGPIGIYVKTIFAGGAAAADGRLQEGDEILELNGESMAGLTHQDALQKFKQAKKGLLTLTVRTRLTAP

[14] = biological target: Inadl_6, Q8NI35
Sequence of Inadl_6, Q8NI35 (Q8NI35 1058-1167): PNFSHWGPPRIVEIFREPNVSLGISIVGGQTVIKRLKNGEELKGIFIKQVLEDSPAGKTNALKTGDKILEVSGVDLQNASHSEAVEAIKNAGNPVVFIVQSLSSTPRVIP

[15] = biological target: Inadl_9, Q8NI35
Sequence of Inadl_9, Q8NI35 (Q8NI35 1530-1615): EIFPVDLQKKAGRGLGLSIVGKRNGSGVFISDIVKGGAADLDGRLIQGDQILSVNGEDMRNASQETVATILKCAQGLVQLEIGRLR

[16] = biological target: LIMK2, P53671
Sequence of LIMK2, P53671 (P53671 143-248): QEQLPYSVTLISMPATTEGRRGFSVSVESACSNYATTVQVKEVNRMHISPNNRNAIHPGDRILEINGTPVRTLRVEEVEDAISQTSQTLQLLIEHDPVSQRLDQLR

[17] = biological target: LNX1_2, Q8TBB1
Sequence of LNX1_2, Q8TBB1 (Q8TBB1 371-470): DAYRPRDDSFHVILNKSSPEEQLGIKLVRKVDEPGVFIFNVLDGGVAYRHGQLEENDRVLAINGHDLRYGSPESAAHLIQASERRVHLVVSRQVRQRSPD

[18] = biological target: T7, LNX2_3, Q8N448
T7 sequence (Q8N448 463-564, limits assumed, looked up): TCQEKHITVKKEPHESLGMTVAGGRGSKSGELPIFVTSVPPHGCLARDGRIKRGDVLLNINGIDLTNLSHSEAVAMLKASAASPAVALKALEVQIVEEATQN

[19] = biological target: MAGI1_1, Q96QZ7
Sequence of MAGI1_1, Q96QZ7 (Q96QZ7 1-106): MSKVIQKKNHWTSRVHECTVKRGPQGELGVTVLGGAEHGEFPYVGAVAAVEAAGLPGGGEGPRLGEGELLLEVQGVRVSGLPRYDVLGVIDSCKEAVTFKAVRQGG

[20] = biological target: MAGI2_2, Q86UL8
Sequence of MAGI2_2, Q86UL8 (Q86UL8 410-522): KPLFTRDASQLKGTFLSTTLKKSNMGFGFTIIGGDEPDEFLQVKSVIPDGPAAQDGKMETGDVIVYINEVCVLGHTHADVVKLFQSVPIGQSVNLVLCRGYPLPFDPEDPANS

[21] = biological target: MAGI2_5, Q86UL8
Sequence of MAGI2_5, Q86UL8 (Q86UL8 915-1017): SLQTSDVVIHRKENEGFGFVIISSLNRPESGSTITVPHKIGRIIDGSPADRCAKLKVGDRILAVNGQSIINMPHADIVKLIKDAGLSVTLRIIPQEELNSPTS

[22] = biological target: T8, MPDZ_12, O75970
T8 sequence (O75970 1857-1958, limits assumed, looked up): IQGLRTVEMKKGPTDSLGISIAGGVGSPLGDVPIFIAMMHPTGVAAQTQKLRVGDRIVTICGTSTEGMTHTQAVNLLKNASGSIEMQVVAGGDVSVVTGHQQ

[23] = biological target: T9, NHERF3_3, Q5T2W1
T9 sequence (Q5T2W1 238-333, limits assumed, looked up): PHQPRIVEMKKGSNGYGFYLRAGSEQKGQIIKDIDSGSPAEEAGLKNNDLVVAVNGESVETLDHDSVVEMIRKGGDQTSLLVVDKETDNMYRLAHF

[24] = biological target: NHERF4_4, Q86UT5
Sequence of NHERF4_4, Q86UT5 (Q86UT5 464-550): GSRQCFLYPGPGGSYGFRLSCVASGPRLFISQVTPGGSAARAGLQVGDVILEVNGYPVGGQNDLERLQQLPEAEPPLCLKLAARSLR

[25] = biological target: PDLIM1, O00151
Sequence of PDLIM1, O00151 (O00151 1-87): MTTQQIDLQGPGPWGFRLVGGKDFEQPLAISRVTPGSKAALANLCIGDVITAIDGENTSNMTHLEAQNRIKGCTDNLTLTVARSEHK

[26] = biological target: T10, RADIL, Q96JH8
T10 sequence (Q96JH8 971-1071, limits assumed, looked up): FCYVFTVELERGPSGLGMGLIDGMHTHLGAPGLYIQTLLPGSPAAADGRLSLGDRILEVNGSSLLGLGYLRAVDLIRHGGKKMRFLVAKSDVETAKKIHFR

[27] = biological target: T11, SIPA1L2, Q9P2F8
T11 sequence (Q9P2F8 945-1036, limits assumed, looked up): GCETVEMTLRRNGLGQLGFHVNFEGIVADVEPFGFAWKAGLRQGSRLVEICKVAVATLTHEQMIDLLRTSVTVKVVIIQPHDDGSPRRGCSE

[28] = plain residues with an end cap or a label only (N-terminal biotin on a linker: ttds)
[29] = plain residues with an end cap or a label only (N-terminal biotin on a linker: none)

B1: ACVR2A, P27037 (peptide)
chain: VDFPPKESSL
- pKd [1, 28]: below the threshold
- pKd [2, 28]: 4.2
- pKd [3, 28]: below the threshold
- pKd [4, 28]: below the threshold
- pKd [5, 28]: below the threshold
- pKd [6, 28]: below the threshold
- pKd [7, 28]: below the threshold
- pKd [8, 28]: 3.48
- pKd [9, 28]: below the threshold
- pKd [10, 28]: below the threshold
- pKd [11, 28]: 3.47
- pKd [12, 28]: below the threshold
- pKd [13, 28]: below the threshold
- pKd [14, 28]: below the threshold
- pKd [15, 28]: below the threshold
- pKd [16, 28]: below the threshold
- pKd [17, 28]: below the threshold
- pKd [18, 28]: below the threshold
- pKd [19, 28]: below the threshold
- pKd [20, 28]: 3.78
- pKd [21, 28]: below the threshold
- pKd [22, 28]: below the threshold
- pKd [23, 28]: below the threshold
- pKd [24, 28]: below the threshold
- pKd [25, 28]: 3.24
- pKd [26, 28]: below the threshold
- pKd [27, 28]: below the threshold

B2: OTULIN, Q96BN8 (peptide)
chain: PVRVCEETSL
- pKd [1, 28]: 3.51
- pKd [2, 28]: 4.8
- pKd [3, 28]: 3.59
- pKd [4, 28]: below the threshold
- pKd [5, 28]: 4.42
- pKd [6, 28]: 3.51
- pKd [7, 28]: below the threshold
- pKd [8, 28]: 4.75
- pKd [9, 28]: 3.69
- pKd [10, 28]: below the threshold
- pKd [11, 28]: 3.75
- pKd [12, 28]: 3.53
- pKd [13, 28]: 3.53
- pKd [14, 28]: 4.4
- pKd [15, 28]: below the threshold
- pKd [16, 28]: below the threshold
- pKd [17, 28]: below the threshold
- pKd [18, 28]: below the threshold
- pKd [19, 28]: below the threshold
- pKd [20, 28]: 4.09
- pKd [21, 28]: 4.13
- pKd [22, 28]: below the threshold
- pKd [23, 28]: below the threshold
- pKd [24, 28]: below the threshold
- pKd [25, 28]: below the threshold
- pKd [26, 28]: below the threshold
- pKd [27, 28]: below the threshold

B3: HPV73-E6, Q82005 (peptide)
chain: SGSRPSATVV
- pKd [1, 28]: below the threshold
- pKd [2, 28]: below the threshold
- pKd [3, 28]: below the threshold
- pKd [4, 28]: below the threshold
- pKd [5, 28]: below the threshold
- pKd [6, 28]: below the threshold
- pKd [7, 28]: below the threshold
- pKd [8, 28]: below the threshold
- pKd [9, 28]: below the threshold
- pKd [10, 28]: below the threshold
- pKd [11, 28]: 3.83
- pKd [12, 28]: 3.55
- pKd [13, 28]: below the threshold
- pKd [14, 28]: below the threshold
- pKd [15, 28]: 3.59
- pKd [16, 28]: below the threshold
- pKd [17, 28]: 4.06
- pKd [18, 28]: below the threshold
- pKd [19, 28]: below the threshold
- pKd [20, 28]: 4.19
- pKd [21, 28]: 3.7
- pKd [22, 28]: below the threshold
- pKd [23, 28]: below the threshold
- pKd [24, 28]: below the threshold
- pKd [25, 28]: 3.48
- pKd [26, 28]: 4.27
- pKd [27, 28]: below the threshold

B4: SARS-CoV2-E, P0DTC4 (peptide)
chain: NLNSSRVPDLLV
- pKd [1, 29]: below the threshold
- pKd [2, 29]: below the threshold
- pKd [3, 29]: below the threshold
- pKd [4, 29]: below the threshold
- pKd [5, 29]: below the threshold
- pKd [6, 29]: below the threshold
- pKd [7, 29]: below the threshold
- pKd [8, 29]: below the threshold
- pKd [9, 29]: below the threshold
- pKd [10, 29]: below the threshold
- pKd [11, 29]: below the threshold
- pKd [12, 29]: below the threshold
- pKd [13, 29]: below the threshold
- pKd [14, 29]: below the threshold
- pKd [15, 29]: below the threshold
- pKd [16, 29]: below the threshold
- pKd [17, 29]: 3.81
- pKd [18, 29]: below the threshold
- pKd [19, 29]: below the threshold
- pKd [20, 29]: below the threshold
- pKd [21, 29]: below the threshold
- pKd [22, 29]: below the threshold
- pKd [23, 29]: below the threshold
- pKd [24, 29]: below the threshold
- pKd [25, 29]: below the threshold
- pKd [26, 29]: 3.76
- pKd [27, 29]: below the threshold

B5: SLC2A1, P11166 (peptide)
chain: FHPLGADSQV
- pKd [1, 28]: below the threshold
- pKd [2, 28]: below the threshold
- pKd [3, 28]: below the threshold
- pKd [4, 28]: below the threshold
- pKd [5, 28]: below the threshold
- pKd [6, 28]: below the threshold
- pKd [7, 28]: below the threshold
- pKd [8, 28]: below the threshold
- pKd [9, 28]: below the threshold
- pKd [10, 28]: below the threshold
- pKd [11, 28]: 3.55
- pKd [12, 28]: below the threshold
- pKd [13, 28]: 3.51
- pKd [14, 28]: below the threshold
- pKd [15, 28]: below the threshold
- pKd [16, 28]: below the threshold
- pKd [17, 28]: below the threshold
- pKd [18, 28]: below the threshold
- pKd [19, 28]: below the threshold
- pKd [20, 28]: below the threshold
- pKd [21, 28]: below the threshold
- pKd [22, 28]: below the threshold
- pKd [23, 28]: below the threshold
- pKd [24, 28]: below the threshold
- pKd [25, 28]: below the threshold
- pKd [26, 28]: below the threshold
- pKd [27, 28]: below the threshold
